Laboratory results reported in patent US5223256A, “Thrombolytically active non-glycosylated protein” (Boehringer Mannheim GmbH, priority 1989, dated 1993).

What was measured:
[1] = background; cited from earlier work
[2] = background; cited from earlier work; remark: listed apart in the source
[3] = tested on: plasminogen; conditions: background; cited from earlier work
[4] = Pharmacokinetics in rabbits (t-PA activity in plasma); assay type: in vivo, New-Zealand white rabbits; conditions: 200000 IU/kg, i.v. infusion 30 min
Procedure: The pharmacokinetic properties of K2P were compared to those of Actilyse® in New-Zealand white rabbits. Both fibrinolytic agents were infused for 30 minutes at a dose of 200,000 IU/kg body weight. Plasma samples were taken at defined times before, during and after the infusion. The t-PA activity was measured with a spectrophotometric test according to J. H. Verheijen et al., (Thromb. Haemostas. 48, 266, 1982), modified according to H. Lill (Z. ges. Inn. Med. 42, 478, 1987).
A calculation programme for non-linear regression modified according to H. Y. Huang (Aero-Astronautics-Report 64, Rice University, 1-30, 1969) Was used to calculate the pharmacokinetic parameters. The parameters were calculated individually using a bi-exponential pharmacokinetic model.

[5] = tested on: jugular vein thrombosis; experiment: Thrombolysis in the rabbit jugular vein model; assay type: in vivo; conditions: 4 h infusion, mean ± SEM
Procedure: (§1) The jugular vein model established by D. Collen et al., (J. Clin. Invest. 71, 368, 1983) was used to investigate the thrombolytic efficacy. K2P and Actilyse® were each examined at three dose levels. The fibrinolytic agents were infused for 4 hours and afterwards the rate of thrombolysis was determined (Table 2, FIG. 5).

[6] = tested on: bleeding time; experiment: Simplate bleeding time in the dog; assay type: in vivo; conditions: i.v. bolus
Procedure: (§2) In a study to determine the dosage, BM 06.022 with the eukaryotic t-PA (Alteplase, Actilyse®, Dr. Karl Thomae GmbH, Biberach, FRG) in four different doses and with placebo were injected as an initial single intravenous bolus over 1 min into heparinized dogs; 6 animals were injected with each dose. Plasma samples were taken before and at defined times after the injection in order to determine the plasma concentration of the t-PA activity and of fibrinogen, plasminogen and α2 -antiplasmin as well as the number of thrombocytes in whole blood. Fibrinogen was measured coagulometrically according to Clauss (Acta haemat. 17, 237, 1957), plasminogen and α2-antiplasmin were measured spectrophotometrically as described by Collen et al., (J. Clin. Invest. 71, 368, 1983). In addition, the "Simplate bleeding time" was measured on the hind leg of the dogs using a lancet (Simplate® I, Organon Teknika, Eppelheim, FRG) during a venostasis of 40 mm Hg (J. Surg. Res. 27, 244, 1979). The statistical comparison of the measured values after injection with the control value before injection was carried out with the Wilcoxon Test for pair differences.

[7] = Plasma t-PA activity at the end of infusion in the rabbit jugular vein model; assay type: in vivo; conditions: end of 4 h infusion, mean ± SEM
Procedure: as §1
(§3) Thrombolysis, level of t-PA plasma activity (at the end of a 4 h

[8] = tested on: coronary artery thrombosis; experiment: Dog model for coronary artery thrombosis (thrombolysis); assay type: in vivo; conditions: for Wet weight of the residual thrombus: 2 h; for Wet weight of the residual thrombus / Reperfusion time: mean ± SEM
Text: An experimental model for acute myocardial infarction in animals was chosen as an example in order to examine the thrombolytic effect of K2P from E. coli on arterial thrombi. The dog was chosen as the animal species. The method for the formation of a coronary artery thrombus was a modification of the technique of Romson et al., (Thromb. Res. 17, 841, 1980). In the open thorax of anaesthetized dogs which were artificially respirated, the intimal surface of the ramus branch of the left circumflex coronary artery (LCX) was electrically stimulated (150 μA) and by this means a thrombus was produced. Previously a screw was applied distal to the thrombosis in order to eliminate a reactive hyperaemia by the experimental stenosis. Proximal to the coronary thrombosis the LCX was equipped with an electromagnetic flow measuring head in order to be able to measure the reperfusion.
as §2
In order to describe the thrombolytic effect, the number of reperfused animals per dose-group (=reperfusion rate) as well as the time up to the reperfusion (=reperfusion time) was quoted. In addition, the wet weight of the residual thrombus still present 2 h after injection was measured and the number of animals with a re-occlusion after reperfusion (=re-occlusionrate) was determined. With the aid of a semi-logarithmic regression analysis of the dose-effect (reperfusion rates) relationships, the effective dose for a 50% reperfusion rate (=ED50) was determined for each substance. The statistical comparison of the weights of the residual thrombi was carried out using the Wilcoxon-Mann-Whitney Test for unconnected random samples.

[9] = Pharmacokinetics in the dog (t-PA activity in plasma); assay type: in vivo; conditions: 200000 IU/kg, i.v. bolus, mean ± standard deviation
Procedure: as §2
The plasma concentration of the t-PA activity was measured with a spectrophotometric test according to Verheijen et al., (Thromb. Haemost. 48, 266, 1982) modified according to Lill (Z. gesamte Inn. Med. 42, 478, 1987). A calculation programme for non-linear regression modified according to H. Y. Huang (Aero-Astronautics-Report 64, Rice University, USA, 1-30, 1969) was used to calculate the pharmacokinetic parameters. The parameters were calculated individually using a bi-exponential pharmacokinetic model after subtraction of the endogenous basal level of t-PA activity from the subsequent measured values.

[10] = tested on: coagulation system; experiment: Haemostasis parameters in the rabbit jugular vein model; assay type: in vivo; conditions: 30 min after end of infusion, mean ± SEM
Procedure: as §1, §3
and haemostasis parameters (30 min after the end of the infusion) of
Mean ± SEM; kU = 1000 IU; HaemostasisParameter (% with reference to […]

[11] = tested on: coagulation system; experiment: Coagulation parameters and number of thrombocytes in the dog; assay type: in vivo; conditions: for Fibrinogen (% of initial value) / Number of platelets (% of initial value) / Plasminogen (% of initial value) / α2-Antiplasmin (% of initial value): 2 h after i.v. bolus, mean ± SEM
Procedure: as §2

Substance: natural t-PA: tissue-type plasminogen activator t-PA
- clearance rate [1]: rapid decrease in its plasma concentration (clearance)
- side effects at high therapeutic doses [2]: side effects such as for example bleeding
- increase of enzymatic activity in presence of fibrin or fibrinogen cleavage products [3]: more than ten-fold

Substance: Actilyse®: eukaryotic t-PA (Alteplase, Actilyse®, Dr. Karl Thomae GmbH, Biberach, FRG)
- Cinf (plasma concentration of t-PA activity at end of infusion) [4]: 326,6 IU/ml
- Cltot (total plasma clearance) [4]: 22.2 mL/min/kg
- Vc (volume of distribution of the central compartment) [4]: 73.7 mL/kg
- t1/2α [4]: 2,1 min
- t1/2β [4]: 10,9 min
- Cltot (total plasma clearance) ([4]; listed as Actilyse ®): 22,2 ml/min/kg
- Vc (volume of distribution of the central compartment) ([4]; listed as Actilyse ®): 73,7 ml/kg
- Thrombolysis ([5]; 400 kU/kg): 46 ± 3%
- Thrombolysis ([5]; 800 kU/kg): 64 ± 6%
- bleeding time compared with control value before injection [6]: increased the bleeding time which was statistically significant at doses of 1130 and 1600 kU/kg body weight
- Plasma t-PA activity ([7]; 400 kU/kg): 47 ± 9 IU/ml
- Plasma t-PA activity ([7]; 800 kU/kg): 107 ± 27 IU/ml
- Re-occlusion rate ([8]; 1 130 000 IU/kg, i.v. bolus): 4/4
- Reperfusion rate ([8]; 1 130 000 IU/kg, i.v. bolus): 4/6
- Wet weight of the residual thrombus ([8]; 1 130 000 IU/kg, i.v. bolus): 4,4 ± 0,5 mg
- Reperfusion time ([8]; 1 130 000 IU/kg, i.v. bolus): 14 ± 3 min
- Re-occlusion rate ([8]; 1 600 000 IU/kg, i.v. bolus): 4/6
- Reperfusion rate ([8]; 1 600 000 IU/kg, i.v. bolus): 6/6
- Wet weight of the residual thrombus ([8]; 1 600 000 IU/kg, i.v. bolus): 2,2 ± 0,7 mg
- Reperfusion time ([8]; 1 600 000 IU/kg, i.v. bolus): 28 ± 11 min
- Reperfusion rate ([8]; 200 000 IU/kg, i.v. bolus): 0/6
- Wet weight of the residual thrombus ([8]; 200 000 IU/kg, i.v. bolus): 8,8 ± 1,3 mg
- Re-occlusion rate ([8]; 800 000 IU/kg, i.v. bolus): 1/2
- Reperfusion rate ([8]; 800 000 IU/kg, i.v. bolus): 2/6
- Wet weight of the residual thrombus ([8]; 800 000 IU/kg, i.v. bolus): 5,5 ± 0,4 mg
- Reperfusion time ([8]; 800 000 IU/kg, i.v. bolus): 35 ± 38 min
- Reperfusion rate ([8]; 1,600 kU/kg body weight, i.v.): 100%
- re-occlusion after reperfusion ([8]; i.v. bolus): Most of the dogs treated with K2P or Actilyse® re-occluded after the reperfusion
- reperfusion time, average over all animals ([8]; i.v. bolus, all doses): 24.2 ± 6.2 min
- weight of the residual thrombus compared to placebo ([8]; increasing doses, i.v. bolus): statistically significant reduction in the weight of the residual thrombus
- Cinj. [9]: 1674 IU/ml
- T1/2α [9]: 1.6 ± 0.2 min
- T1/2β [9]: 14,6 min
- Vc (volume of distribution of the central compartment) [9]: 106,1 ml/kg
- T1/2α ([9]; listed as Actilyse ®): 1,6 min
- Fibrinogen (% of base line) ([10]; 400 kU/kg): 90 ± 3%
- Plasminogen (% of base line) ([10]; 400 kU/kg): 88 ± 4%
- α2-Antiplasmin (% of base line) ([10]; 400 kU/kg): 87 ± 3%
- Fibrinogen (% of base line) ([10]; 800 kU/kg): 77 ± 6%
- Plasminogen (% of base line) ([10]; 800 kU/kg): 77 ± 4%
- α2-Antiplasmin (% of base line) ([10]; 800 kU/kg): 74 ± 6%
- Fibrinogen (% of initial value) ([11]; 1 130 000 IU/kg): 16 ± 13%
- Number of platelets (% of initial value) ([11]; 1 130 000 IU/kg): 110 ± 10%
- Plasminogen (% of initial value) ([11]; 1 130 000 IU/kg): 59 ± 6%
- α2-Antiplasmin (% of initial value) ([11]; 1 130 000 IU/kg): 45 ± 6%
- Fibrinogen (% of initial value) ([11]; 1 600 000 IU/kg): 3±0%
- Number of platelets (% of initial value) ([11]; 1 600 000 IU/kg): 119 ± 10%
- Plasminogen (% of initial value) ([11]; 1 600 000 IU/kg): 46 ± 2%
- α2-Antiplasmin (% of initial value) ([11]; 1 600 000 IU/kg): 19 ± 11%
- Fibrinogen (% of initial value) ([11]; 1 600 000 IU/kg, listed as Actilyse ®): 3 ± 0%
- Fibrinogen (% of initial value) ([11]; 200 000 IU/kg): 97 ± 3%
- Number of platelets (% of initial value) ([11]; 200 000 IU/kg): 109 ± 4%
- Plasminogen (% of initial value) ([11]; 200 000 IU/kg): 90 ± 3%
- α2-Antiplasmin (% of initial value) ([11]; 200 000 IU/kg): 86 ± 4%
- Fibrinogen (% of initial value) ([11]; 800 000 IU/kg): 86 ± 4%
- Number of platelets (% of initial value) ([11]; 800 000 IU/kg): 104 ± 6%
- Plasminogen (% of initial value) ([11]; 800 000 IU/kg): 87 ± 3%
- α2-Antiplasmin (% of initial value) ([11]; 800 000 IU/kg): 64 ± 5%
- concentration of platelets ([11]; 2 h after injection, dog): virtually uninfluenced
- lowering of residual contents of plasminogen and α2-antiplasmin ([11]; 2 h after injection, dog): more pronounced with Actilyse® than with K2P
- residual content of fibrinogen at the ED50 for thrombolytic effect ([11]; equipotent doses, semi-logarithmic regression, dog): 38.6%
